Test results as given in the supplement of paper PMC9170038.

System: MS2 coat protein
Experiment: apparent KD of MS2 coat protein; designed switch direction (-1 OFF switch, 1 ON switch): -1; higher = weaker reporter binding
Method in brief: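 An oligonucleotide input, 200 uM small-molecule ligand, or no input was present during titration of SNAP-549-labelled MS2 coat protein, which was doubled from 0.7 or 1.5 nM to 3 µM. Designed RNA switches had been transcribed on Illumina chips by stalled E. coli RNA polymerase. Apparent KD per design is the median over clusters of curves fitted to normalised cluster fluorescence.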

[1] = input ligand: microRNA oligo, concentration not stated
[2] = Eterna round: R95, input ligand: microRNA oligo, concentration not stated
[3] = Eterna round: R95, input ligand: FMN 200 uM
[4] = Eterna round: R95, input ligand: none

Sequence | apparent KD of MS2 coat protein (input ligand: FMN 200 uM) [nM] | apparent KD of MS2 coat protein [1] [nM] | apparent KD of MS2 coat protein (input ligand: none) [nM] | apparent KD of MS2 coat protein [2] [nM] | apparent KD of MS2 coat protein [3] [nM] | apparent KD of MS2 coat protein [4] [nM]
GUUGGGUGAUGAUACAUGAGGAUCACCCAUGUUAAAAGUCAUUAGGAUAUCCCGACGGCCGGUUAGGAGAAGGAGUGACCAGGC [Maonma] (Eterna round: R96, puzzle: Exclusion NG 3) | 636 | 285 | 429 | – | – | –
GUUGUGCGAGGAUAUAUGUGAGGUUUGCCUCAACAGGUAAUACAUGAGGAUCACCCAUGUAGAAGGCGCAUGAG [S1-(23.6);S2-(22.1) [87C]] (Eterna round: R96, puzzle: Exclusion 2) | 248 | 45 | 63.9 | – | – | –
GUUGUUUAUGUAGGAUAUGCCUGGCGUGCCUUUGCAGAAGGACAUGAGGAUCACCCAUGUAACAUGAGGCUCACCCAUGUCGCA [salish99_ExNG1_r04_109] (Eterna round: R96, puzzle: Exclusion NG 1) | 758 | 244 | 599 | – | – | –
GUUGUUUAUGUAGGAUAUGCCUGGCGUGCCUUUGCAGAAGGACAUGAGGAUCACCCAUGUAUUGCGGUCUGCGUUCAGAUCGCG [salish99_ExNG1_r4_040] (Eterna round: R96, puzzle: Exclusion NG 1) | 58.3 | 27.8 | 30 | – | – | –
GUUUACAAGCUAAGAUCCUACAUGAGGAUCACCCAUGUGGUCCGGUGACGUGAGUCACCGGACUUAGCUCGUCUUGU [salish99_S_TOV1_R5_001] (Eterna round: R97, puzzle: Sensor, turn-off variant 1) | 86.8 | – | 90.4 | – | – | –
GUUUAGUGAGGAUAUGUGGCUUCGAUCGUGCGAGGGAGGCUACAGAAGGCACAUGAGGAUCACCCAUGUUCCUC [salish99_ex4_r4_303] (Eterna round: R97, puzzle: Exclusion 4) | 655 | – | 42.5 | – | – | –
GUUUCACAUGAGGAUCACCCAUGUGAGGAUAUGGAUUCGAUAGAAGUAGAAGAUGGAUCCAGAAGGCGCGUGAC [JR_Ex1_Sub078] (Eterna round: R97, puzzle: Exclusion 1) | 35.3 | – | 36.4 | – | – | –
GUUUUCAGACGGAGAUCCUACAUGAGGAUCACCCAUGUCUCACAAGCUUUUUGCUCGUCUUAUACUCCUCUGUUCUC [Elimod 42 - Jieux - Sensor, turn-off variant 1] (Eterna round: R97, puzzle: Sensor, turn-off variant 1) | 83.5 | – | 106 | – | – | –
GUUUUCAGACGGAGAUCCUACAUGAGGAUCACCCAUGUCUCUCUUGCUAAUUGCUCGUCUUUUUCUCCUCUGUUCUC [Elimod 36 - Jieux - Sensor, turn-off variant 1] (Eterna round: R97, puzzle: Sensor, turn-off variant 1) | 81.2 | – | 95.8 | – | – | –
GUUUUGAGACGGAGAUCCGACAUGAGGAUCACCCAUGUCUCGCAAGCUUUUUGCUCGUCUUAUACUCCUCUGUUCUC [Elimod 45 - Jieux - Sensor, turn-off variant 1] (Eterna round: R97, puzzle: Sensor, turn-off variant 1) | 17.8 | – | 17.1 | – | – | –
GUUUUGAUAGGAUAUACAUGAGGAUCACCCAUGUCCCACCCGUUACCUCUGACCCUAUGUAGAAGGAUCGUUUA [Exy#15] (Eterna round: R97, puzzle: Exclusion 3) | 27.5 | – | 37.2 | – | – | –
UAAAAGAUGGACGAACCACAUGAGGAUCACCCAUGUCGAGGUUAGGAUAUGUCGUCCAUGGGACCACAGAAGGGACUGAAGACU [Teraqu] (Eterna round: R96, puzzle: Exclusion NG 3) | 16 | 11.3 | 20.2 | – | – | –
UAAAAGCGAGGAUAUACAUGAGGAUCACCCAUGUGGGCAAAGUUCGCUAAGGUACCUAGUAGAAGGCGCGAAAU [Digeanin] (Eterna round: R97, puzzle: Exclusion 3) | 450 | – | 63.3 | – | – | –
UAAAAGGAAGGAUAUACACUUCAAAACCUCAUGUGACUUUCACAUGAGGAUCACCCAUGUAGAAGGUCCAAGGC [Letior] (puzzle: Exclusion 2) | – | – | – | 21.5 | – | –
UAAAAGUCAGGAUAUGCGAGAGAUUGAAGUGUGGCAAGGUAGCAGAAGGGACAUGAGGAUCACCCAUGUGUGGC [JR_Exclu4_Sub096] (puzzle: Exclusion 4) | – | – | – | 49 | – | –
UAAAAGUUAGGAUAUACAUGAGGAUCACCCAUGUCGCGGAACCGCGGCGAUUACUCCUGUAGAAGGAACAUCGU [Ribeat] (puzzle: Exclusion 3) | – | – | – | 125 | – | –
UAAAAUAGUGUGAGGAUAUGCUGGUCCUUGGAUCAGCAGAAGGCACAUGAGGAUCACCCAUGUAAAUAAUAAUA [Mat - Exclusion 4 - JL Mod - D27] (puzzle: Brourd's mod of Exclusion 4) | – | – | – | 54.6 | 184 | 67.1

Sequence | apparent KD of MS2 coat protein (input ligand: FMN 200 uM) [nM] | apparent KD of MS2 coat protein [1] [nM] | apparent KD of MS2 coat protein (input ligand: none) [nM] | apparent KD of MS2 coat protein [2] [nM] | apparent KD of MS2 coat protein [3] [nM] | apparent KD of MS2 coat protein [4] [nM]
UAAAGACAUGAGGAUCACCCAUGUAAGGAUAUCGCCUGCGGUGGCGCCAGCCAUUAGGCGAGAAGGUGCGGUGA [Eternabot (L1) Solution 14] (Eterna round: R97, puzzle: Exclusion 1) | 326 | – | 417 | – | – | –
UAAAGUAUAUAGGAUAUCUAGCUGGUAACAGCUAGAGAAGGAUGUACAUGAGGAUCACCCAUGUAAAUCAGUGA [Ex6/14-A2] (Eterna round: R97, puzzle: Exclusion 6) | 23.3 | – | 17.9 | – | – | –
UAAAUAAAUGUAGGAUAUCUGCACGUUUAGUGCAGAGAAGGACAUGAGGAUCACCCAUGUAUAGUAGCUUCGGCUACAAAUAAU [ENG1-C2] (Eterna round: R96, puzzle: Exclusion NG 1) | 115 | 42.2 | 76.3 | – | – | –
UAAAUAAGUGUGAGGAUAUGCUGGUCCUUGGAUCAGCAGAAGGCACAUGAGGAUCACCCAUGUAAUAUAUUUAU [Mat - Exclusion 4 - JL Mod - D61] (puzzle: Brourd's mod of Exclusion 4) | – | – | – | 68.1 | – | –
UAAAUGGUGUCAGGAUAUCCUGCAUAGUCUGCUGGAGAAGGGACAUGAGGAUCACCCAUGUAAGCCGGCAUGACUGAAUUCCUC [Atrice] (Eterna round: R96, puzzle: Exclusion NG 1) | 50.7 | 23.3 | 32.2 | – | – | –
UAAAUGUCAGGAUAUUGUUAAUUUAGUUGUUUGUAUUAGUUCGAGAAGGGACAUGAGGAUCACCCAUGUUAAAA [Ex4 #52] (Eterna round: R97, puzzle: Exclusion 4) | 37.6 | – | 31 | – | – | –
UAAAUGUGAGGAUAUCAGGUGUGCUAGCGAACUGGUACAUCUGAGAAGGCACAUGAGGAUCACCCAUGUUCCUU [Mat - Exclusion 4 - Mod of JL - D50] (puzzle: Exclusion 4) | – | – | – | 16.2 | – | –
UAAAUGUGAGGAUAUUCGAAGAACACGGAGACGUGUUUUUCGGAGAAGGCACAUGAGGAUCACCCAUGUUCCUU [Mat - Exclusion 4 - JL Mod - D6] (Eterna round: R97, puzzle: Exclusion 4) | 241 | – | 29.8 | – | – | –
UAACAUGUAGAAGGAUAUCUGCACGUUUAGUGCAGAGAAGGUCUAACAUGAGGAUCACCCAUGUAGAUCAUUAAUUAAUUAAUU [ENG1/8-B2] (Eterna round: R96, puzzle: Exclusion NG 1) | 15.8 | 9.45 | 12.9 | – | – | –
UAACCUCGCGUCAGGAUAUGUGAGGACUGUGACGCACAGAAGGGACAUGAGGAUCACCCAUGUGAAAGAAAUAA [Erlacema] (puzzle: Brourd's mod of Exclusion 4) | – | – | – | 22.2 | – | –
UAACUUCUUGUAAGGAUAUCGGUCCCAAGGGACAACGAGAAGGUACAUGAGGAUCACCCAUGUGAAAUAAGAAU [Zala] (puzzle: Brourd's mod of Exclusion 4) | – | – | – | 22.7 | 66.6 | 19.8
UAAGAAUACUGAGGAUAUGCUAGUUUAUCUCAGGCAGAAGGCGGACUCAACAUGAGGAUCACCCAUGUAAGACGGGUACUAGAU [Ex NG1 #14] (Eterna round: R96, puzzle: Exclusion NG 1) | 131 | 92.2 | 89 | – | – | –
UAAGAUUACCGAGGAUAUGCUGGUUUAUCUCAAGCAGAAGGCGGACUCAACAUGAGGAUCACCCAUGUAAGACGGGUACUAGAU [Ex NG1 #12] (Eterna round: R96, puzzle: Exclusion NG 1) | 61.5 | 69.1 | 97.1 | – | – | –
UAAGAUUACCGAGGAUAUGCUGGUUUCUCUUAAGCAGAAGGCGGACUCAACAUGAGGAUCACCCAUGUAAGAAGGGUAUUAGAU [Ex NG1 #10] (Eterna round: R96, puzzle: Exclusion NG 1) | 85.9 | 78.6 | 116 | – | – | –
UAAGAUUACCGAGGAUAUGGUAAUUUUUAUUAACCAGAAGGCGGACUCAACAUGAGGAUCACCCAUGUAUAAAGGGUAUUAGUU [JR_ExcNG1_Sub039] (Eterna round: R96, puzzle: Exclusion NG 1) | 87.5 | 70.7 | 98.7 | – | – | –
UAAGUUGUGGUAGGAUAUACUUUAAAUUUCUCUAUCCAUACAUGAGGAUCACCCAUGUUUACAUUGUAGAAGGACCUUUUUGUU [JR_ExcNG2_Sub058] (Eterna round: R96, puzzle: Exclusion NG 2) | – | 19.7 | – | – | – | –
UAAGUUUAGGUAGGAUAUACUUUAAAUUUCUCUAUCCAUACAUGAGGAUCACCCAUGUUUACAUUGUAGAAGGACCACUAUGUU [JR_ExcNG2_Sub055] (Eterna round: R96, puzzle: Exclusion NG 2) | – | 19.8 | – | – | – | –
